Source: paper PMC9083366, “Brassinosteroid-Insensitive 1-Associated Receptor Kinase 1 Modulates Abscisic Acid Signaling by Inducing PYR1 Monomerization and Association With ABI1 in Arabidopsis” (Frontiers in Plant Science, 2022)
Positions count from the first letter of the chain named.

T1: GST-ABI1 (Arabidopsis thaliana, UniProt P49597 1-434)
T1 construct: ABI1 (ABA-Insensitive 1), clade A protein phosphatase 2C, Arabidopsis thaliana; also called ABA-Insensitive 1; not shown: GST, N-terminal, kept
T1 sequence (looked up): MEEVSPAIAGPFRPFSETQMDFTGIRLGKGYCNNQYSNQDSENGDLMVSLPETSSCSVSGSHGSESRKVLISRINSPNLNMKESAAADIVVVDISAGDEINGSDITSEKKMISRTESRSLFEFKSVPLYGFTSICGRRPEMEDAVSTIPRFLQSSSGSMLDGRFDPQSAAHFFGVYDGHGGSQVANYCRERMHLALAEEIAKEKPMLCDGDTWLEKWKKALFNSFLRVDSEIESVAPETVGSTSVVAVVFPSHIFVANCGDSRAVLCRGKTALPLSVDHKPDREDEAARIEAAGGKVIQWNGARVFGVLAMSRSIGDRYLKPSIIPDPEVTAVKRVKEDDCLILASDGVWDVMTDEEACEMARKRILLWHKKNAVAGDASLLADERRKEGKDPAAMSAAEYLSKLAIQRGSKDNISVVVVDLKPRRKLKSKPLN

B1: HIS-tagged PYR1 recombinant protein (natural protein, Arabidopsis thaliana, UniProt O49686 1-191, looked up)
chain: MPSELTPEERSELKNSIAEFHTYQLDPGSCSSLHAQRIHAPPELVWSIVRRFDKPQTYKHFIKSCSVEQNFEMRVGCTRDVIVISGLPANTSTERLDILDDERRVTGFSIIGGEHRLTNYKSVTTVHRFEKENRIWTVVLESYVVDMPEGNSEDDTRMFADTVVKLNLQKLATVAEAMARNSGDGSGSQVT
notes: PYR1 (PYRABACTIN …1), Arabidopsis thaliana, 191 amino acids; also called HIS-PYR1; PYRABACTIN …1; not shown: His, N-terminal, kept
B2: HIS-PYR1DD (phosphomimetic PYR1) (natural protein, Arabidopsis thaliana, UniProt O49686 1-191, looked up)
chain: B1 chain with T137D, S142D
notes: PYR1, Arabidopsis thaliana, 191 amino acids, T137 and S142 mutagenized to aspartic acid; not shown: His, N-terminal, kept

Molecular target: T1, GST-ABI1
Assay: pull-down; GST-ABI1 incubated with HIS-PYR1 variants in the absence or presence of 30 uM ABA; western blot with anti-GST and anti-HIS
Details: both partners purified

Binder | binding result
B1 | binds
B2 | binds
